In experiment [1] the target is AT4 receptor of bovine adrenal membranes (bovine). Description: competition for 125I-Ang IV binding, bovine adrenal membranes.
The target in experiment [2] is AT4 receptor of sheep central nervous system (sheep). Kind of experiment: competition for [125I]Ang IV binding, sheep cerebellar cortical membranes.
The target is the same in experiment [3]. Kind of experiment: competition for 125I-LVV-haemorphin-7 binding, sheep cerebellar cortical membranes.
The target of experiment [4] is embryonic chicken Ang II receptor (chicken). Description: competition for 125I[Sar1Ile8]Ang II binding, E13 chicken chorioallantoic membranes.
Chain of embryonic chicken Ang II receptor (chicken) (P79785 whole entry): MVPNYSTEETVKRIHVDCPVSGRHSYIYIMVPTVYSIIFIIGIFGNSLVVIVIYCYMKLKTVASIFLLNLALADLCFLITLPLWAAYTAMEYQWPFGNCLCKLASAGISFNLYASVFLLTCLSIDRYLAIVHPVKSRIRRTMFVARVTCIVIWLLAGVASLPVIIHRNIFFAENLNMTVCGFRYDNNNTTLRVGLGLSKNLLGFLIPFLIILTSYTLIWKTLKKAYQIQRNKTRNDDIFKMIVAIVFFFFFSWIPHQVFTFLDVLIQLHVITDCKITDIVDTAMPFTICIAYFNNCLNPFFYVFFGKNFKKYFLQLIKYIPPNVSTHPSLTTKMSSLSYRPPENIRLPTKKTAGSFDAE
Experiment [5] addresses angiotensin AT4 receptor of Macaca fascicularis brain (Macaca fascicularis). Kind of experiment: competition for [125I]Ang IV binding, monkey prefrontal cortical sections.
The target of experiment [6] is embryonic chicken AT4 receptor (chicken). Description: cell-based or functional assay.
Chain of embryonic chicken AT4 receptor (chicken) (F1NNE7 entry or part of it): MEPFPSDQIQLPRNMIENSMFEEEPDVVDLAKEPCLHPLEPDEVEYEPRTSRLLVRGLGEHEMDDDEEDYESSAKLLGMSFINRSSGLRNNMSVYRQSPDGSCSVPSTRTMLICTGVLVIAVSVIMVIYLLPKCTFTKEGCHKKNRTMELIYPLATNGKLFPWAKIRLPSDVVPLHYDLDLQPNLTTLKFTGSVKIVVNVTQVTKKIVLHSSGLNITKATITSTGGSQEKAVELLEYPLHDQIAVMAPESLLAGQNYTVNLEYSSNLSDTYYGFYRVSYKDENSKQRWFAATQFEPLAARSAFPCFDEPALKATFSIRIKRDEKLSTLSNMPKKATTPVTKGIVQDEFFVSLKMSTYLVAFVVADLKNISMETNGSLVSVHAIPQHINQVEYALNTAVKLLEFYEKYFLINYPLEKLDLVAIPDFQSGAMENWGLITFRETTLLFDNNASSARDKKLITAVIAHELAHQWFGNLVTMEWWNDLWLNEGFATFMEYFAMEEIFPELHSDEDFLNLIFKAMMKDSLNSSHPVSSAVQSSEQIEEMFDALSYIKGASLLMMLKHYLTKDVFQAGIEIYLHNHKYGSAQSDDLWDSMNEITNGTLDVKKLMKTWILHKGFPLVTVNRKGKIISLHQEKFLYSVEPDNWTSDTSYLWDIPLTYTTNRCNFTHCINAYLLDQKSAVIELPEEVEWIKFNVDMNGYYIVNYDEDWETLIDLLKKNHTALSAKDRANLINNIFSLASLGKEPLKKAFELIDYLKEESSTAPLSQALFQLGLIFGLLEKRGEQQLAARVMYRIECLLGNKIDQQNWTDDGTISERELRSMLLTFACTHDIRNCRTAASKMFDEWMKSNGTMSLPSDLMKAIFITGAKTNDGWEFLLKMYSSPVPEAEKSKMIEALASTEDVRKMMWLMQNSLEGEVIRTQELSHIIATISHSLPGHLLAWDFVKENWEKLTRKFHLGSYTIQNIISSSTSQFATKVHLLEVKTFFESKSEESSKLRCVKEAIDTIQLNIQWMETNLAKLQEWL
Experiment [7] has the same target. Kind of experiment: competition for [125I]Ang IV binding, E13 chicken chorioallantoic membranes.

Where no end group is shown, it is not given here.

The source of these data is patent US20020147129A1.

As a reminder, the IC50 is the point on the concentration scale where inhibition reaches its midpoint. In experiment [1], LVVYPWTQRF [LVV-haemorphin-7] yielded an affinity in competing for ^125I-Ang IV binding of 1 to 5 nM. Moreover, the half-maximal inhibitory concentration (IC50) worked out at 2 nM in experiment [2] and 5.6 nM in experiment [3].

B1: angiotensin IV (peptide)
peptide: VYIHPF
modifications: also: same id also used for [125I]Ang IV tracer, radioiodinated with chloramine T
For the molecule B1, the affinity in competing for ^125I-Ang IV binding in experiment [1] is 1 to 5 nM. The half-maximal inhibitory concentration (IC50) in experiment [2] came out at 1.13 nM; in experiment [4], 50 µM; in experiment [5], 5 nM; in experiment [7] it was 18 nM; in experiment [3] it was 1 nM. Besides, in experiment [6], the inhibition of neurite outgrowth from E11 chicken sympathetic neurons: half maximal inhibition was found to be 100 pM. Further, the inhibition of neurite outgrowth from E11 chicken sympathetic neurons: maximal effect in experiment [6] was determined as 1 nM. This molecule also gave an inhibition of neurite outgrowth from E11 chicken sympathetic neurons: threshold in experiment [6] of 10 pM.
